Values joined by “and” are separate entries in the source; they are usually repeats but may differ in a detail not shown here. Equal values may be shown once. Blank lines part the entries; values can stand above or below the molecule they belong to.
Key:
[1] = target: T1, NrdJd-wt (Snas 4560), full-length class II RNR (Stackebrandtia nassauensis, UniProt D3Q6G1); test: effector titration of NDP reductase activity, HPLC; type: biochemical; settings: half-maximal activation by allosteric effector, AdoCbl
T1 construct: gene Snas_4560; monomer/dimer, tetramer/hexamer with dATP or dGTP
T1 sequence (D3Q6G1 1-946): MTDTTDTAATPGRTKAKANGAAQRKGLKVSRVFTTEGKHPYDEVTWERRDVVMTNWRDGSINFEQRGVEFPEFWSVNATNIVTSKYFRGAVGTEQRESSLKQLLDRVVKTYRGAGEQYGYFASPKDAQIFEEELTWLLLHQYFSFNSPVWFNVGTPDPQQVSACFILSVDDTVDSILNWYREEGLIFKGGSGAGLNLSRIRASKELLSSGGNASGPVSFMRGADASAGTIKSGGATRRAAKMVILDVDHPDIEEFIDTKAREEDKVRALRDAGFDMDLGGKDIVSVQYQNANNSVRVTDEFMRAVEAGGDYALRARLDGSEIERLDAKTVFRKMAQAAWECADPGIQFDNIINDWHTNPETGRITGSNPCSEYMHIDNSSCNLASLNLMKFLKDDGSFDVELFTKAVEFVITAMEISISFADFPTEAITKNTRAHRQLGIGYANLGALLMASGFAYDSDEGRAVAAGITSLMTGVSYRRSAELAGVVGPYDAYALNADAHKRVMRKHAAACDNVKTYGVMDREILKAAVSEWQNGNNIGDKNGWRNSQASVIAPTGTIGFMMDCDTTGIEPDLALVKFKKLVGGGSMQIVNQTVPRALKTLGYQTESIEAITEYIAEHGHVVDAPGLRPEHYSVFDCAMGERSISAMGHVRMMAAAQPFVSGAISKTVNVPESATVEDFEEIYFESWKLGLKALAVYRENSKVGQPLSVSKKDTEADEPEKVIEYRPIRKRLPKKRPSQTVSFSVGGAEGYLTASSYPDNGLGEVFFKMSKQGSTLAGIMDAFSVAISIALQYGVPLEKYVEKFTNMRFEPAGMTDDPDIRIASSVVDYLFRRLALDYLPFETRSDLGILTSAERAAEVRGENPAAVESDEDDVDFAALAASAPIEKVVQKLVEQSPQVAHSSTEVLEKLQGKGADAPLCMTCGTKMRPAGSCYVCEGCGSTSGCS

NrdJdΔCRD = target: T2, NrdJdΔCRD (Stackebrandtia nassauensis, UniProt D3Q6G1); test: effector titration of NDP reductase activity, HPLC; type: biochemical; settings: half-maximal activation by allosteric effector; range printed for all effectors together; single preferred NDP substrate; AdoCbl; Tris pH 8.0, 20 mM MgCl2, 50 mM DTT, room temperature
T2 construct: gene Snas_4560; catalytic domain, residues 1-714 (codon 715 replaced by stop), C-terminal cysteine-rich domain removed; mainly monomer

[2] = target: T1, NrdJd-wt (Snas 4560), full-length class II RNR; test: GEMMA oligomerization titration; type: binding; settings: effector-induced tetramer/hexamer formation; 0.075 mg/ml protein; 40 mM ammonium acetate pH 7.8, equimolar MgCl2; possible further nucleotide site
[3] = target: T3, C933A/C370A mixture (mutant mix) of NrdJd (Stackebrandtia nassauensis, UniProt D3Q6G1, C370A/C933A); test: effector titration of CDP reductase activity, HPLC; type: biochemical; settings: half-maximal activation by allosteric effector; equimolar mixture of two single mutants; substrate CDP; reductant TCEP; AdoCbl; standard assay Tris pH 8.0, 20 mM MgCl2, room temperature
T3 construct: gene Snas_4560; equimolar mixture of two separately purified full-length single mutants (not a double mutant)

[4] = target: NrdJd-wt, the full-length version of the Stackebrandtia nassauensis class II ribonucleotide reductase (Stackebrandtia nassauensis); test: GEMMA (gas phase electrophoretic macromolecule analysis); 0.075 mg/ml NrdJd-wt with dATP (100 μM, and a titration of dATP), equimolar MgCl2; 40 mM ammonium acetate pH 7.8, 0.005% Tween 20, 0.2 mM DTT
[5] = target: NrdJd-wt, the full-length version of the Stackebrandtia nassauensis class II ribonucleotide reductase (Stackebrandtia nassauensis); test: GEMMA (gas phase electrophoretic macromolecule analysis); 0.075 mg/ml NrdJd-wt, no effector; 40 mM ammonium acetate pH 7.8, 0.005% Tween 20, 0.2 mM DTT
[6] = target: NrdJd-wt, the full-length version of the Stackebrandtia nassauensis class II ribonucleotide reductase (Stackebrandtia nassauensis); test: GEMMA (gas phase electrophoretic macromolecule analysis); 0.075 mg/ml NrdJd-wt with dGTP (100 μM, and a titration of dGTP), equimolar MgCl2; 40 mM ammonium acetate pH 7.8, 0.005% Tween 20, 0.2 mM DTT
[7] = target: NrdJd-wt, the full-length version of the Stackebrandtia nassauensis class II ribonucleotide reductase (Stackebrandtia nassauensis); test: GEMMA (gas phase electrophoretic macromolecule analysis); 0.075 mg/ml NrdJd-wt with 100 μM dTTP, equimolar MgCl2; 40 mM ammonium acetate pH 7.8, 0.005% Tween 20, 0.2 mM DTT
[8] = target: NrdJd-wt, the full-length version of the Stackebrandtia nassauensis class II ribonucleotide reductase (Stackebrandtia nassauensis); test: GEMMA (gas phase electrophoretic macromolecule analysis); 0.075 mg/ml NrdJd-wt with dCTP, equimolar MgCl2; 40 mM ammonium acetate pH 7.8, 0.005% Tween 20, 0.2 mM DTT
[9] = target: NrdJd-wt, the full-length version of the Stackebrandtia nassauensis class II ribonucleotide reductase (Stackebrandtia nassauensis); test: SEC; analytical SEC, Superdex 200 Increase 3.2, 25 μl of 1.0 mg/ml protein, 50 mM Tris pH 7.5, 300 mM NaCl, 1 mM DTT, in the presence or absence of 100 μM effector (dATP)
[10] = target: NrdJdΔCRD, the C-terminally deleted version of the S. nassauensis class II ribonucleotide reductase (Stackebrandtia nassauensis); test: GEMMA (gas phase electrophoretic macromolecule analysis); 0.025 mg/ml NrdJdΔCRD, with or without 100 μM effector (dATP); 40 mM ammonium acetate pH 7.8, 0.005% Tween 20, 0.2 mM DTT
[11] = target: S. nassauensis NrdJd C933A, C-terminal (CRD) mutant (Stackebrandtia nassauensis)
[12] = single preferred NDP substrate (not given), Tris pH 8.0, 20 mM MgCl2, 50 mM DTT (standard conditions), room temperature, upper limit sta

T3 sequence (D3Q6G1 entry or part of it C370A): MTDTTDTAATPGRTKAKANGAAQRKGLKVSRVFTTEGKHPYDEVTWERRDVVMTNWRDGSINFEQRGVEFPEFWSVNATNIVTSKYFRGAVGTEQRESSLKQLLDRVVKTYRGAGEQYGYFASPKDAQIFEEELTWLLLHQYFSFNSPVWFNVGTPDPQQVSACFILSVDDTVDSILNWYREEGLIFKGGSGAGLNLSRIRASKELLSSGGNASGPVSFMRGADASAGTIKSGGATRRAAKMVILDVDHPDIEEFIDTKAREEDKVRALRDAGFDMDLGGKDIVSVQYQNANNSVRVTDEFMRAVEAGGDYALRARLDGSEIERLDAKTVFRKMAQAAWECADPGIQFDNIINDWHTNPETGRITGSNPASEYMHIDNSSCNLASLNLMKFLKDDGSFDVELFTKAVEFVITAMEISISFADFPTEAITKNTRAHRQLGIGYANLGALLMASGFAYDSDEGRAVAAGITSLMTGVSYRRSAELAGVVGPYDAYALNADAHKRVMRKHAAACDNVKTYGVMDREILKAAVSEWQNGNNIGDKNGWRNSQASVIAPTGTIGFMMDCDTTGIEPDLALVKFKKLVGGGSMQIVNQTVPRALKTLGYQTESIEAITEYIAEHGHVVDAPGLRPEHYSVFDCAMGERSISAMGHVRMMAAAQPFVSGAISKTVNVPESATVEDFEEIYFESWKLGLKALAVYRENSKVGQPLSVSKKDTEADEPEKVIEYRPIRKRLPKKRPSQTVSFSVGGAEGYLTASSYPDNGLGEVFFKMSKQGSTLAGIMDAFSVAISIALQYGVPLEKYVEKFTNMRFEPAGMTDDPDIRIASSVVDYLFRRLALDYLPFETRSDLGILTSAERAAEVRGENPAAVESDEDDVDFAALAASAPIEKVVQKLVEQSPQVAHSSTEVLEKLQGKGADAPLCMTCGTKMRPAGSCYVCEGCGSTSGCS
T3 sequence (D3Q6G1 entry or part of it C933A): as the sequence (D3Q6G1 entry or part of it C370A) above, with A370C, C933A counted along it

EC50 ([1]; substrate CDP, reductant TCEP, standard assay Tris pH 8.0, 20 mM MgCl2, room temperature): < 4 µM
concentration with half the enzyme as tetramer or hexamer [2]: ~ 17 μmol liter^−1
EC50 [3]: 15 ± 4.5 µM
Molecule: Nc1ncnc2c1ncn2[C@H]1C[C@H](O)[C@@H](COP(=O)(O)OP(=O)(O)OP(=O)(O)O)O1 [dATP]

EC50 [1, 12]: < 4 µM
Molecule: Nc1ccn([C@H]2C[C@H](O)[C@@H](COP(=O)(O)OP(=O)(O)OP(=O)(O)O)O2)c(=O)n1 [dCTP]

EC50 [1, 12]: < 4 µM
Molecule: Nc1nc2c(ncn2[C@H]2C[C@H](O)[C@@H](COP(=O)(O)OP(=O)(O)OP(=O)(O)O)O2)c(=O)[nH]1 [dGTP]

EC50 [1, 12]: < 4 µM
Molecule: Cc1cn([C@H]2C[C@H](O)[C@@H](COP(=O)(O)OP(=O)(O)OP(=O)(O)O)O2)c(=O)[nH]c1=O [dTTP]

Second part, the molecule before the results:

Molecule: Nc1ncnc2c1ncn2[C@@H]1O[C@H](COP(=O)(O)OP(=O)(O)OP(=O)(O)O)[C@@H](O)[C@H]1O [ATP]
EC50 [1, 12]: < 4 µM
KL (NrdJdΔCRD): the affinity of the C-terminal truncated enzyme toward each tested effector is reduced

Molecule: NrdJd-wt, the full-length version of the Stackebrandtia nassauensis class II ribonucleotide reductase (enzyme)
stoichiometry N [4]: 4 and 6
stoichiometry N [5]: 2
stoichiometry N [6]: 4 and 6
stoichiometry N [7]: 2
stoichiometry N [8]: 2
stoichiometry N [9]: 4

Molecule: NrdJdΔCRD, the C-terminally deleted version of the S. nassauensis class II ribonucleotide reductase (domain or fragment)
stoichiometry N [10]: 2

Molecule: S. nassauensis NrdJd C370A, active site cysteine-deficient mutant (enzyme)
RNR activity of the C933A/C370A mixture, substrate/effector GDP/dTTP (dimers only), TCEP as reductant, dTTP titrated 4 to 1000 μM, relative to NrdJd-wt (3 to 7%) (% of NrdJd-wt) [11]: 3 to 7
Vmax of RNR activity of the C933A/C370A mixture, substrate/effector CDP/dATP (tetramers and hexamers), TCEP as reductant, relative to NrdJd-wt (% of the wild type) [11]: 30

Source: paper PMC5704485, “A unique cysteine-rich zinc finger domain present in a majority of class II ribonucleotide reductases mediates catalytic turnover” (The Journal of Biological Chemistry, 2017)
